In US20050009042A1 (AVENTIS PHARMA S A, published 2005):
Values belong to the molecule of their own block, whether it stands above or below them.

T1: MT2R-Luc, protein from fusion of the melatonin receptor MT2 with luciferase (UniProt P49286 1-362)
T1 construct: whole, on cells; Control fusion protein; also called melatonin-Luc MT2 receptor
T1 sequence (looked up): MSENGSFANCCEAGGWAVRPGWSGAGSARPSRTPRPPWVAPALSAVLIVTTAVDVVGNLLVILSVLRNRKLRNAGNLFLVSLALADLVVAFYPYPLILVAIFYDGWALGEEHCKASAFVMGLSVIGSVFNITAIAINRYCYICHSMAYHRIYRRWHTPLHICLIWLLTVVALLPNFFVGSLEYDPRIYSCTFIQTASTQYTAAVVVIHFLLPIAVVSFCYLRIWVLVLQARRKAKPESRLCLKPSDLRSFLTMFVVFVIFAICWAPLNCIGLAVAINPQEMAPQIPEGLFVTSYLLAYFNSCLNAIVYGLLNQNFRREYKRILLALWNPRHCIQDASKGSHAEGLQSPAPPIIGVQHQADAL

B1: MYO47-Luc (other)
chain: MAGIKALISLSFGGAIGLMFLMLGCALPIYNKYWPLFVLFFYILSPIPYCIARRLVDDTDAMSNACKELAIFLTTGIVVSAFGLPIVFARAHLIEWGACALVLTGNTVIFATILGFFLVFGSNDDFSWQQW
notes: also called MY047-Rluc; not shown: Renilla luciferase (vector pcDNA3-Rluc)
B2: MYO47-YFP (other)
chain: B1 chain
notes: also called MY047-YFP; not shown: YFP (Topaz, vector pcDNA3-YFP)
B3: OB-RGRP-YFP (other)
chain: MAGVKALVALSFSGAIGLTFLMLGCALEDYGVYWPLFVLIFHAISPIPHFIAKRVTYDSDATSSACRELAYFFTTGIVVSAFGFPVILARVAVIKWGACGLVLAGNAVIFLTIQGFFLIFGRGDDFSWEQW
notes: Expressed in HeLa or HEK cells from pcDNA3-OB-RGRP-YFP; also called OB-RGRP tagged with YFP at its C-terminal tail; OB-RGRP-YFB; not shown: YFP coding region from vector pGFPtpz-N1 (Cytogem-Topaze, Packard)
B4: YFP-OB-RGRP (other)
chain: B3 chain
notes: The construction of this plasmid is not described on its own; only the double fusion YFP-OB-RGRP-Luc is; also called OB-RGRP tagged at the N-terminal with YFP; not shown: YFP (Topaz, from pGFPtpz-N1) at the N-terminus
B5: 6Myc-OB-RGRP (4TM) (other)
chain: B3 chain
notes: not shown: The N-terminal 6xMyc tag (the 6myc fragment of pCDNA3-RSV-6Myc) and its junction
B6: OB-RGRP-Luc (other)
chain: B3 chain
notes: Expressed in cells from pcDNA3-OB-RGRP-Luc; also called OB-RGRP-Rluc; not shown: Renilla luciferase, coding region from vector pRL-CMV (Promega)

Experiments:
OB-Rl = assay: cell-based or functional assay
[1] = biological target: T2, IR-YFP, protein from fusion of the insulin receptor with YFP (UniProt P06213 28-1382); assay: BRET in living cells, equimolar coexpression
T2 construct: whole, on cells; Control fusion protein; also called construct of the insulin receptor tagged with YFP; not shown: YFP
Description: (§1) 48 h after transfection, the COS-7, HeLa or HEK 293 cells expressing the OB-R fusion proteins were detached and washed in PBS. 1-2×10⁵ cells were distributed into wells of optiplate plates (96-well, Packard Instrument Company, Meriden, Conn.) in the presence or absence of the ligands, and incubated at 25° C. Alternatively, the same procedure was carried out with membranes prepared from the cells expressing the various constructs. The substrate, coelenterazine h (Molecular Probes, Eugene, Oreg.), was added at a final concentration of 5 μmol.L⁻¹ and the readings were carried out with a Fusion™ luminometer/fluorimeter (Packard Instrument Company, Meriden, Conn.), which makes it possible to measure luminescence through two filters (luciferase filter: 485±10 nm; YFP filter: 530±12.5 nm). The BRET ratio was defined as the difference in emission at 530 nm/485 nm of the cells cotransfected with the Luc and YFP fusion proteins and the emission at 530 nm/485 nm of the Luc fusion protein transfected alone into the cells. The results are expressed as milliBRET units (mBU), 1 mBRET corresponding to the values of the differences in the ratios multiplied by 1000.
(§2) We used BRET technology to study a possible interaction between OB-R and OB-RGRP in living cells. An energy transfer was constitutively observed in the cells coexpressing the OB-Rₛ-Luc construct and the OB-RGRP-YFP construct, indicating proximity of the interaction partners (FIG. 7). The same results were obtained in cells coexpressing OB-Rₛ-Luc and the MYO47-YFP construct, and also in the reverse orientation: in cells coexpressing OB-RGRP-Luc and OB-Rₛ-YFP, or in cells coexpressing MYO47-Luc and OB-Rₛ-YFP. The specificity of these interactions was confirmed by the lack of energy transfer between OB-Rₛ-Luc, OB-RGRP-Luc, MYO47-Luc and a construct of the insulin receptor tagged with YFP (Boute et al. (2001) Mol Pharmacol 60, 640-645), and also in the reverse orientation: by the lack of energy transfer between a construct of the insulin receptor tagged with Luc and the OB-Rₛ-YFP, OB-RGRP-YFP and MYO47-YFP construct.

[2] = biological target: T3, construct of the insulin receptor tagged with Luc (UniProt P06213 28-1382); assay: BRET in living cells, equimolar coexpression
T3 construct: whole, on cells; Control fusion protein; also called IR-Luc
Description: as §1, §2

[3] = biological target: the molecule itself; assay: SDS-PAGE and anti-YFP immunoblot of HeLa cell lysates, with or without DSP crosslinker; self-association
Description: (§3) Study of the oligomerization of OB-RGRP with SDS-PAGE experiments and immunoprecipitations. FIG. 4a: the cells expressing the fusion proteins indicated were treated or not treated with 2 mmol.L⁻¹ dithiobis(succinimidyl propionate) (DSP) in PBS (1×, pH7.4) in order to crosslink the protein complexes. The proteins were separated by SDS-PAGE and the proteins from fusions with YFP were detected using a specific anti-YFP antibody. FIG. 4b: the cells expressing the construct 6Myc-OB-RGRP were solubilized with 1% of digitonin or 5% of SDS and the solubilized material was immunoprecipitated with an anti-myc antibody. The precipitates were subjected to separation by SDS-PAGE and the proteins tagged with myc were detected with an anti-myc antibody.
(§4) The total lysates were prepared by washing the cells once with cold PBS (pH 7.4) and denatured by adding loading buffer (30 mmol.L⁻¹ Tris HCl, pH 6.8, 1% glycerol, 5% SDS, 50 mmol.L⁻¹ DTT and 0.05% bromophenol blue). The total lysates or the immunoprecipitates were incubated for 10 minutes at 90° C. and then loaded onto 10% acrylamide gel for separation by electrophoresis (SDS-PAGE).
OB-RGRP was tagged with YFP at its C-terminal tail and expressed in HeLa cells. The proteins were separated by polyacrylamide gel electrophoresis under denaturing conditions (SDS-PAGE) and immunoblotting experiments were carried out with an anti-YFP antibody. […]

OB-RGRP-Luc [4] = biological target: B6; assay: BRET in living HEK cells; the signal also rises hyperbolically to saturation with the OB-RGRP-YFP/OB-RGRP-Luc ratio
Description: (§5) Study of the oligomerization of OB-RGRP in live HEK cells, by BRET technology. FIG. 6a: the fusion proteins indicated were coexpressed at an equimolar ratio, and BRET measurement experiments were carried out. FIG. 6b: constant amounts of the plasmid OB-RGRP-Luc were coexpressed with increasing amounts of the plasmid OB-RGRP-YFP and BRET measurements were carried out. MT2R-Luc, protein from fusion of the melatonin receptor MT2 with luciferase.
as §1, with “The BRET ratio was defined as the difference in emission at 530 nm/485 nm of the cells cotransfected with the Luc and YFP fusion proteins and the emission at 530 nm/485 nm of the Luc fusion protein transfected alone into the cells.” left out, “1000. […]” for “1000.”

[5] = biological target: T1, MT2R-Luc, protein from fusion of the …; assay: BRET in living HEK cells, equimolar coexpression
Description: as §5
as §1, with “The BRET ratio was defined as the difference in emission at 530 nm/485 nm of the cells cotransfected with the Luc and YFP fusion proteins and the emission at 530 nm/485 nm of the Luc fusion protein transfected alone into the cells.” left out, “1000. […]” for “1000.”

[6] = biological target: the molecule itself; assay: SDS-PAGE and anti-YFP immunoblot; self-association
Description: as §3, §4

OB-RGRP-Luc [7] = biological target: B6; assay: BRET in living HEK cells, equimolar coexpression
Description: as §5
as §1, with “The BRET ratio was defined as the difference in emission at 530 nm/485 nm of the cells cotransfected with the Luc and YFP fusion proteins and the emission at 530 nm/485 nm of the Luc fusion protein transfected alone into the cells.” left out, “1000. […]” for “1000.”

[8] = biological target: the molecule itself; assay: anti-myc immunoprecipitation, SDS-PAGE and anti-myc blot; self-association

activation of a luciferase reporter gene under STAT3-response elements, EC50 (OB-Rl): 0.05 nM
activation of a luciferase reporter gene under STAT5-response elements, EC50 (OB-Rl): 0.05 nM
increase in the basal activation of the reporter gene for STAT3 (OB-Rl): 1.5 fold
Molecule: leptin (ligand)

Molecule: B1
binding result [1]: no binding

Molecule: B2
binding result [2]: no binding

Molecule: B3
binding result [3]: binds
binding result (OB-RGRP-Luc [4]): binds
binding result [5]: no binding
binding result [2]: no binding

Molecule: B4
binding result [6]: binds
binding result (OB-RGRP-Luc [7]): binds

Molecule: B5
binding result [8]: binds

Molecule: B6
binding result [1]: no binding
